{
  "source": "patent US20260158142A1",
  "about": "(published 2026)",
  "binders": {"B1": {"name": "Aβ-Th1 TCR (TCR, V domains shown)", "Valpha": "QQQVRQSPQSLTVWEGETAILNCSYENSAFDYFPWYQQFPGEGPALLISILSVSNKKEDGRFTIFFNKREKKLSLHIADSQPGDSATYFCAGGDYANKMIFGLGTILRVRP", "Vbeta": "DPKIIQKPKYLVAVTGSEKILICEQYLGHNAMYWYRQSAKKPLEFMFSYSYQKLMDNQTASSRFQPQSSKKNHLDLQITALKPDDSATYFCASSQDRSYNSPLYFAAGTRLTVT"}},
  "target": "T1, human amyloid beta (Aβ42), T cell epitope peptide on H2-IAb (mouse)",
  "T1 peptide": "KLVFFAEDVGSNKGA",
  "test": "multimer staining",
  "data": [
    {"binder": "B1", "values": [
      {"measurement": "binding result", "result": "recognises"}
    ]}
  ]
}
